Results reported in PMC5187861.

Tests used:
Assay in all cases: yeast two-hybrid, quantitative β-galactosidase assay
[1] = target: HK1a cytoplasmic part (HK1a-CP), LexA-based two-hybrid bait; conditions: HK1a-CP as bait, HPt as prey, mean of at least four independent assays in triplicate, standard error bars, read off a plot
[2] = target: HK1a receiver domain (HK1a-RD), LexA-based two-hybrid bait; conditions: HK1a-RD as bait, HPt as prey, mean of at least four independent assays in triplicate, standard error bars, read off a plot
[3] = target: HK1b cytoplasmic part (HK1b-CP), LexA-based two-hybrid fusion; conditions: HK1b-CP as bait, HPt as prey, standard error bars, read off a plot
[4] = target: HK1b receiver domain (HK1b-RD), LexA-based two-hybrid bait; conditions: HK1b-RD as bait, HPt as prey, standard error bars, read off a plot

Substance | response (β-Galactosidase units) ([1]; parent: est. 71) | response (β-Galactosidase units) ([2]; parent: est. 120) | response (β-Galactosidase units) ([3]; parent: est. 11) | response (β-Galactosidase units) ([4]; parent: est. 240) | response (β-Galactosidase units) ([1]; parent: est. 4.2) | response (β-Galactosidase units) ([2]; parent: est. 19) | response (β-Galactosidase units) ([3]; parent: est. 2.3) | response (β-Galactosidase units) ([4]; parent: est. 11)
HPt2, histidine-containing phosphotransfer protein 2 (two-hybrid prey) L32K; K73R; A76S | 32 | 95 | 7 | 210 |  |  |  | 
HPt1, histidine-containing phosphotransfer protein 1 (two-hybrid prey) K33L; R74K; S77A |  |  |  |  | 5.5 | 33 | 3.7 | 16
